Source: the supplement of paper PMC12764529
± gives the half width of the 95% confidence interval.

Legend:
[1] = folding stability dG unfold (combined trypsin and chymotrypsin); higher = more stable
Procedure, shortened: (§1)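 Designed mini-proteins with no cysteine and under 80 residues were kept only if AlphaFold2 dimer inter-PAE was above 15. In a PA-tagged cDNA display construct, they were digested with trypsin and chymotrypsin and then sequenced. K50 was inferred by Bayesian fitting of counts, and unfolding free energy was derived per protease or combined against a sequence-predicted unfolded-state K50 and a shared folded-state K50.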

[2] = folding stability dG unfold from trypsin proteolysis; higher = more stable
Procedure, shortened: as §1

[3] = folding stability dG unfold from chymotrypsin proteolysis; higher = more stable
Procedure, shortened: as §1

Sequence	folding stability dG unfold [1]	folding stability dG unfold [2]	folding stability dG unfold [3]
SAGGSAGGSAMTIKVEVTVKVKVKLENGETKEKEVKVTVEIELPPLTKEELEKNKELLKKLLSAGGSAGGSA [r18_114_TrROS_Hall]	2.42 ± 0.16 kcal/mol	2.42 ± 0.14 kcal/mol	2.53 ± 0.08 kcal/mol
SAGGSAGGSAGMTYRVRIENADGEVVTIEISADELREKGLTLEELLPPNARIVEVEEVEPSAGGSAGGSAGG [r11_829_TrROS_Hall]	3.63 ± 0.09 kcal/mol	3.8 ± 0.16 kcal/mol	3.61 ± 0.063 kcal/mol
SAGGSAGGSAGGMVYFPESLKEEVIEELKKKGYKIKSIEKIEGGYIRITTPKNPIEIKLLSAGGSAGGSAGG [r17_379_JUSTAS]	0.8 ± 0.17 kcal/mol	0.443 ± 0.084 kcal/mol	0.786 ± 0.25 kcal/mol
SAGGSAGGSKETLTIKIKVEVKDENGEKKEVTVTLTIKAETKEEAEALLKELKEKYPNVKVEPSAGGSAGGS [r12_1043_TrROS_Hall]	2.93 ± 0.23 kcal/mol	2.7 ± 0.38 kcal/mol	2.9 ± 0.11 kcal/mol
SAGGSAGGSAGGDDNDPGKIKIEVEVETYPIPNPNGEPFYITTHTIKIPNLDIEFMMIMPSAGGSAGGSAGG [r7_945_TrROS]	1.7 ± 0.11 kcal/mol	2.01 ± 0.1 kcal/mol	1.45 ± 0.039 kcal/mol
SAGGMPKYFAEVDTEPHGDKVKITLRIRDPNGVERELTFELPLSEVIKLLKELPEEFEVFELKFSDESAGGS [r16_298_TrMRF]	2.71 ± 0.14 kcal/mol	2.05 ± 0.042 kcal/mol	3.12 ± 0.034 kcal/mol
SAGGSAGGSKPDTIKITFPDGFEIEINGPGMIMIRFPEQGYIFRIPIDPDKNEIKIEIVEPLPSAGGSAGGS [r12_539_TrROS]	3.05 ± 0.13 kcal/mol	2.43 ± 0.11 kcal/mol	3.39 ± 0.045 kcal/mol
SAGGMKVRIRIEVDGKTLELELEVEPGETVKITLEVNGEEVTITFDAATGEITIELPPGAKIVEIEPSAGGS [r16_761_TrROS_Hall]	4.01 ± 0.39 kcal/mol	3.56 ± 0.23 kcal/mol	4.52 ± 0.46 kcal/mol
SAGGSAGGSAKPTFDNVENLSLEELAKKIAKEAAEKYPDAKNVEVEFRLPNGKSYRIVVDVDSAGGSAGGSA [r18_449_TrMRF]	1.26 ± 0.096 kcal/mol	1.21 ± 0.036 kcal/mol	1.26 ± 0.12 kcal/mol
SAGGSAGGSSFSVEVIENPDSDVILRKIHFDNFTVIPLFDPSTGKIVSVVVQFPDGSWYTFPLSAGGSAGGS [r12_563_TrMRF]	2.51 ± 0.11 kcal/mol	2.18 ± 0.1 kcal/mol	2.78 ± 0.053 kcal/mol
SAGPKITVKKLPDGSYLLLIEVPHEGGPSSRALIPYNPKTGKLELLEIETTHEEIKDKLIELAEELRKSSAG [r5_266_TrMRF]	2.52 ± 0.13 kcal/mol	1.96 ± 0.08 kcal/mol	2.8 ± 0.071 kcal/mol
SAGMVVTERTEPATGRPYTVTTEEDGSVTGSYPATGDTRSTTLNDRTTFSLPTTSPEVAAAQVEAALAASAG [r14_561_JUSTAS]	-0.137 ± 0.072 kcal/mol	-0.138 ± 0.075 kcal/mol	-0.313 ± 0.15 kcal/mol
SAGGSAGGSAGGNWVTIWIPFKMTHYRPDPDGKMYPHKHEMPRPITIPPGQATEDALDKISAGGSAGGSAGG [r7_777_TrROS]	0.595 ± 0.11 kcal/mol	0.165 ± 0.12 kcal/mol	0.762 ± 0.14 kcal/mol
SAGGIKIERDPNMWKFEIPLPNKPLTIHISQSDGRYTIAIYENGKPIRTVPFPGPVDDAIERALKKLSAGGS [r8_276_TrROS]	1.93 ± 0.054 kcal/mol	1.66 ± 0.034 kcal/mol	2.05 ± 0.032 kcal/mol
SAGGSAGMIEVEIRPTPEGGYEVLVKFYGPGGVEVEEKKYRFGSEEEAKKFLEELAKKNGYSVKIRSAGGSA [r15_242_JUSTAS]	3.3 ± 0.067 kcal/mol	2.11 ± 0.056 kcal/mol	3.74 ± 0.027 kcal/mol
SAGGSAGGLKPGEEWLILFRIDIEIEPMPPNMSPDMAKRFPNMYHIEVKIDILIIPAEDLKELFSAGGSAGG [r6_831_TrROS]	3.51 ± 0.13 kcal/mol	3.17 ± 0.13 kcal/mol	3.74 ± 0.042 kcal/mol
SAGGSAGGSMDLKDIKILEAYDPGGPVVVTFLNEGKPYTVTIPPENAQILLDLLKEGNIEIKPSAGGSAGGS [r12_604_TrMRF]	1.25 ± 0.054 kcal/mol	0.773 ± 0.032 kcal/mol	1.54 ± 0.047 kcal/mol
SPLKPNDIRPIKFTSPIRNPDNGRPFRIKVEIWVMPEDPMVIIKDEIEPPNGRTREHTFWIPPGQKIEIPSA [r9_88_TrROS]	0.295 ± 0.3 kcal/mol	0.261 ± 0.13 kcal/mol	0.358 ± 0.33 kcal/mol
SAGGPNLYIFIKIEHKGQTVTFMYPVPPGNLEKLVDEIASMGFPEIKIEEIYIFPPNGWIPVTVRLPSAGGS [r8_219_TrROS]	3.4 ± 0.14 kcal/mol	2.88 ± 0.13 kcal/mol	3.71 ± 0.041 kcal/mol
SMTVSNPRGKTVTVTVTVTVDPNKKSVTVPVTIRTAGEELTFTFTVPKGVNKPVTFSLTVPLPPGSSVISSA [r9_973_JUSTAS]	3.63 ± 0.089 kcal/mol	3 ± 0.093 kcal/mol	4.02 ± 0.059 kcal/mol
SMPPDEKLIFVTRFKVKPDNPEDIEKALAAARETVRALLEELGLPEVKEVRVLRVEVHPDGYVTVVVEVGSA [r9_754_TrMRF]	4.49 ± 0.08 kcal/mol	4.05 ± 0.11 kcal/mol	4.73 ± 0.1 kcal/mol

Sequence	folding stability dG unfold [1]	folding stability dG unfold [2]	folding stability dG unfold [3]
SAGPPKKREFEIMIQIPLPPGQSAEELKDLLEIPIRLPDGKTIEIRPRAIEVDPGPGQVTVHYKIEVTDSAG [r5_939_TrROS]	0.463 ± 0.099 kcal/mol	0.179 ± 0.079 kcal/mol	0.498 ± 0.11 kcal/mol
SMPRLVATPRPDGSVLVLLEAPPERPEEIAEEIRERLGVPLRVVRIEPVPERVGDRPRLRYRVLIEVDVRSA [r9_431_TrMRF]	0.976 ± 0.095 kcal/mol	0.96 ± 0.077 kcal/mol	0.923 ± 0.12 kcal/mol
SAGGSAGGSKKAEELAKKLGLEVEIVKVEKKKDGSEVVIVKIKNKDGSELTLVVKDGKVELFPSAGGSAGGS [r12_279_TrROS_Hall]	2.24 ± 0.079 kcal/mol	1.79 ± 0.081 kcal/mol	2.44 ± 0.073 kcal/mol
SAGGSAGGSKLRLVLKFKTPEEAEEAARKLAEELKKKEGVKEVKVSVVKVNGEYYVVVEVEKESAGGSAGGS [r12_7_TrROS_Hall]	3.72 ± 0.25 kcal/mol	2.53 ± 0.27 kcal/mol	4.15 ± 0.11 kcal/mol
SAGGSAGMMKVTTTPVSADTVRVTVTVPGGPFTVTVTQNGVPLLTRTVPADATLTITLPPNATVVGSAGGSA [r15_581_JUSTAS]	1.94 ± 0.14 kcal/mol	1.91 ± 0.098 kcal/mol	1.94 ± 0.078 kcal/mol
SAGGAPNWKIEKIEIEYPGRKIEVWRHDNMWFIHIPAPPGYPIRIKIKIEPDNGETQTQERTFPIPPPSAGG [r13_191_TrROS]	2.37 ± 0.35 kcal/mol	1.75 ± 0.061 kcal/mol	2.83 ± 0.073 kcal/mol
SAGGMIRITEGPNYYKITFWMPPNNPSLLEEIADFFGNPKVDTEPIPEDGMTRHEITLPLDDPEAIKSAGGS [r16_479_TrROS]	1.19 ± 0.27 kcal/mol	0.765 ± 0.11 kcal/mol	1.37 ± 0.23 kcal/mol
SAGGSAGMVLVRTPDGEVLLLPFTSPEEAEEALERLTGGRLVSVRLEGTPGDRLLLVAEVERPPGGSAGGSA [r15_447_TrMRF]	2.06 ± 0.11 kcal/mol	1.88 ± 0.045 kcal/mol	2.16 ± 0.059 kcal/mol
SAGGALKELPDGSVELYYNTETGLFTVRVRHPDKPPLVFTVESPEDALKFAKALEEKGIKIDKVVPAPSAGG [r13_727_TrMRF]	2.02 ± 0.14 kcal/mol	2.1 ± 0.068 kcal/mol	1.86 ± 0.065 kcal/mol
SAGGSAGGSAGGGTAEELAKELEDLGYKVKLEPEGDYLLLTVTDPDNDKPYVILLDPETISAGGSAGGSAGG [r7_0_TrMRF]	0.991 ± 0.035 kcal/mol	1.25 ± 0.067 kcal/mol	0.776 ± 0.028 kcal/mol
SAGGMTITVTVGPGKEEEAVEALKKKTGLKVELVETTPRPVRAPDGTVLEEVEEITIKITKPDPNLKESAGG [r13_943_JUSTAS]	-0.638 ± 0.45 kcal/mol	-0.511 ± 0.21 kcal/mol	-0.269 ± 0.2 kcal/mol
SAGYWEFEIELPNGRKIEIEWQRMNGRYWFKIEVLDDNGKPVREVPIPFPNPEMPFEQMIKNAVKKILDSAG [r5_630_TrROS]	3.41 ± 0.15 kcal/mol	2.44 ± 0.047 kcal/mol	3.898 ± 0.032 kcal/mol
MKVEIVEVEYDEETKRVRVKLKVDGKLVEIEFDLESGKVTVRIYEDGEEIEIEAESVEDALEKAKELVKEKS [r1_177_TrROS_Hall]	1.93 ± 0.28 kcal/mol	2.02 ± 0.2 kcal/mol	1.69 ± 0.12 kcal/mol
SAGGDNKPKVYPITFMIPPDDIKPGDEIPIDEIADNLGIPPNYTIKIKEVQPNPEDGYYMYRIEIVWSAGGS [r16_165_TrROS]	1.65 ± 0.073 kcal/mol	1.57 ± 0.041 kcal/mol	1.68 ± 0.085 kcal/mol
SAGMEELAEELAKELEGEGLKVEVEVDPETGVVTVTAYSPESVTVVTITQDPNNDAFTVNTTTYPPLLSAGG [r19_2_JUSTAS]	3.02 ± 0.059 kcal/mol	3.07 ± 0.083 kcal/mol	2.95 ± 0.061 kcal/mol
SAGGSAMITVKLEGKPVTVEILSREPKGRLVKAQAVVHRPDDGTEKTVSGLLSEEEIEKAIEEALASAGGSA [r15_944_JUSTAS]	-0.15 ± 0.12 kcal/mol	-0.917 ± 0.32 kcal/mol	0.143 ± 0.11 kcal/mol
SAGGSKKTLTITVKNKETGETVKIKVELTPDGKKIKITIVAKKEEEAKEAAKKLLEELGYKVEIVPSAGGSA [r2_30_TrROS_Hall]	2.09 ± 0.2 kcal/mol	3.15 ± 0.36 kcal/mol	1.61 ± 0.066 kcal/mol
SAGGKPKIRIKIEIYTPEKKETIELEFDSVEEALEALASLPGVKVEKLPDGTIYIKIPNLIIKIEIEPSAGG [r13_143_TrROS_Hall]	3.42 ± 0.3 kcal/mol	3.19 ± 0.2 kcal/mol	3.57 ± 0.1 kcal/mol
SAGGSAGGSAGGSPVIIPDKGYLVVELEEEGLLVVYPLYPDGEIGPAFVRPVHPDVPVLSAGGSAGGSAGGS [r4_409_TrMRF]	1.92 ± 0.072 kcal/mol	2.61 ± 0.062 kcal/mol	0.982 ± 0.039 kcal/mol
SLIEALRAALEAGADEVTLRIVMPEEEAEELEKALEDLGFEIVSRERVEVDGRRYLVMEIRLRAPPPEEPSA [r9_498_TrROS_Hall]	4.59 ± 0.1 kcal/mol	3.92 ± 0.095 kcal/mol	4.93 ± 0.084 kcal/mol
SAGGSAGGSALKPNETATIRILTTAPDGKPYVLVVEVRVLPDGGVEVLGYKLVTLSDLEKNSAGGSAGGSAG [r3_212_TrMRF]	3.32 ± 0.11 kcal/mol	2.53 ± 0.11 kcal/mol	3.74 ± 0.082 kcal/mol
